Square brackets hold non-standard residues; d marks the D form. Ends that are not written are not given here. Aib = CC(C)(N)C(=O)O
Legend:
human GLP-1 receptor = target: T1, human GLP-1 receptor (Homo sapiens, UniProt P43220); experiment: In vitro cAMP activity in human GLP-1 receptor-expressing CHO cells (LANCE cAMP kit); format: cell-based; conditions: long-acting conjugates (peptide-PEG-immunoglobulin Fc); relative titer from cAMP EC50, human GLP-1 receptor CHO cells
T1 construct: expressed in transfected cells; host or cells: Chinese hamster ovary (CHO)
T1 sequence (P43220 24-463): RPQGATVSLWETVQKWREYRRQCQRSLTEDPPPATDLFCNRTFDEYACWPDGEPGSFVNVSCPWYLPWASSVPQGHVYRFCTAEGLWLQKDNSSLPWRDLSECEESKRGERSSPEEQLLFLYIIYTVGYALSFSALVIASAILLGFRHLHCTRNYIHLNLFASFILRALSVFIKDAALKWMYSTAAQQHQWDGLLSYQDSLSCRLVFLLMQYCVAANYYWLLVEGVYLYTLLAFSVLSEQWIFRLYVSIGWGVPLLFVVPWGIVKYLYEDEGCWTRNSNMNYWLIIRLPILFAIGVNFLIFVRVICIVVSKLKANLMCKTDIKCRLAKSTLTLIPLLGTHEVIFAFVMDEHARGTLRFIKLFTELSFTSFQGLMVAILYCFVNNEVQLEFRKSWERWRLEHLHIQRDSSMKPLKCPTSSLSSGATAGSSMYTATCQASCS
Method: (§1) In order to measure the activity of the GLP-1/GIP dual agonist prepared in Example 1, an in vitro cell activity was measured using cell lines transformed with the GLP-1 receptor and the GIP receptor, respectively. The cell lines are transformed to express human GLP-1 and human GIP receptor genes in Chinese hamster ovary (CHO), respectively, and are suitable for measuring the activities of GLP-1 and GIP. Therefore, the activity for each part was measured using each transformed cell line.
To measure the GLP-1 activity of the dual agonist prepared in Example 1, human GLP-1 was diluted from 50 nM to 0.000048 nM by 4-fold serial dilution, and the dual agonist prepared in Example 1 was diluted from 50 nM to 0.000048 nM by 4-fold serial dilution. The culture medium was removed from the cultured human GLP-1 receptor-expressing CHO cells, 5 μl of each of the serially diluted materials was added to the cells, and then 5 μl of buffer containing cAMP antibody was added to the cells, followed by 15 minutes of incubation at room temperature. Then, cells were lysed by adding 10 μl of detection mix containing cell lysis buffer, and reacted at room temperature for 90 minutes. The cell lysate after the reaction had been completed, was applied to the LANCE cAMP kit (PerkinElmer, USA) to calculate the EC50 value through the accumulated cAMP, and then compared with each other.
(§2) In order to measure the activity of the long-acting conjugate of SEQ ID NOs: 20, 36, and 40 prepared in Example 3, the cell activity in vitro was measured using cell lines transformed with the GLP-1 receptor and the GIP receptor, respectively, in the same manner as in Example 2.
(§3) The cell lines were transformed to express the human GLP-1 receptor and the human GIP receptor genes in Chinese hamster ovary (CHO), respectively, and were each the same cell line used in Example 2. Activity for each part was measured using each transformed cell line. […]

human GIP receptor = target: T2, human GIP receptor (Homo sapiens, UniProt P48546); experiment: In vitro cAMP activity in human GIP receptor-expressing CHO cells (LANCE cAMP kit); format: cell-based; conditions: long-acting conjugates (peptide-PEG-immunoglobulin Fc); relative titer from cAMP EC50, human GIP receptor CHO cells
T2 construct: expressed in transfected cells; host or cells: Chinese hamster ovary (CHO)
T2 sequence (P48546 22-466): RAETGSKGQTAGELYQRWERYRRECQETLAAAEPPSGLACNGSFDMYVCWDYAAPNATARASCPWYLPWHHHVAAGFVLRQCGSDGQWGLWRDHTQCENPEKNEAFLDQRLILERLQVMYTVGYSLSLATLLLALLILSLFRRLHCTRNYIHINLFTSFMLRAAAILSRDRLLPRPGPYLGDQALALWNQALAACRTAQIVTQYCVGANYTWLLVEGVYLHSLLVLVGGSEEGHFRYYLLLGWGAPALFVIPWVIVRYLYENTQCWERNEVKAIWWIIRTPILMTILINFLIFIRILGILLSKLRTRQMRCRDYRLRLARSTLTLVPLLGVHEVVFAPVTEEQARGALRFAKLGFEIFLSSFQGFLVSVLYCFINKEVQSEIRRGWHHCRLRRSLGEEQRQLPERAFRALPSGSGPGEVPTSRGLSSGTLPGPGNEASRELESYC
Method: as §1
To measure the GIP activity of the dual agonist prepared in Example 1, human GIP was diluted from 50 nM to […] by 4-fold serial dilution, and the dual agonist prepared in Example 1 was diluted from 50 nM to 0.000048 nM by 4-fold serial dilution. The culture medium was removed from the cultured human GIP receptor-expressing CHO cells, 5 μl of each of the serially diluted materials was added to the cells, and then 5 μl of buffer containing cAMP antibody was added to the cells, followed by 15 minutes of incubation at room temperature. Then, cells were lysed by adding 10 μl of detection mix containing cell lysis buffer, and reacted at room temperature for 90 minutes. The cell lysate after the reaction had been completed, was applied to the LANCE cAMP kit (PerkinElmer, USA) to calculate the EC50 value through the accumulated cAMP, and then compared with each other.
as §2, §3

Row | Substance | In vitro activity compared to native peptide (%) vs human GLP-1 (human GLP-1 receptor) [%] | In vitro activity compared to native peptide (%) vs human GIP (human GIP receptor) [%]
1 | 20 (Y[Aib]EGTFTSDYSI[Aib]LDKQAA[Aib]AFVQWLIAGGPSSGAPPPSC) [compound 20] | 7.5 | 62.1
2 | 40 (Y[Aib]EGTFTSDYSIALEKQAQRDFVNWLLAGGPSSGAPPPSC) [compound 40] | 10.1 | 24.7
3 | 36 (Y[Aib]EGTFTSDYSI[Aib]LDKQAQQAFVQWLIAGGPSSGAPPPSC) [compound 36] | 3.9 | 26.9
